The record followed here is the supplement of paper PMC10567573.

The chains are these.
B1: ZER1 (parent)
chain: KEMARKVIEHCSNFKEENMDTSR
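Also: lentivirally expressed fusions sorted by FACS into six bins by GFP to DsRed ratio, PSI derived from sequencing read proportions per bin multiplied by bin number.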

In this data set the parent is B1. Description: protein stability index of a GFP-peptide fusion (GPS, HEK-293T) (PSI 1-6); higher = more stable. The following applies: c terminus: native.
In the case of KEMARKVIEHCSNFKEENMWTSR [D20W], the protein stability index came out at 2.5. For the variant KEMARKVIEHCSNFKEENMRTSR [D20R], the protein stability index came out at 2.13.

Regarding KEMARKVIEHCSNFKEENMGTSR [D20G], the protein stability index amounted to 2.68. As to KEMARKVIEHCSNFKEENMSTSR [D20S], the protein stability index came out at 2.46. Turning to KEMARKVIEHCSNFKEENMFTSR [D20F], the protein stability index is 2.98.

For the variant KEMARKVIEHCSNFKEENMITSR [D20I], the protein stability index was 1.52. Under KEMARKVIEHCSNFKEENMMTSR [D20M] stands 1.91.

With KEMARKVIEHCSNFKEENMETSR [D20E], the protein stability index came to 2.51. In the case of KEMARKVIEHCSNFKEENMYTSR [D20Y], the protein stability index is 2.89. Under KEMARKVIEHCSNFKEENMKTSR [D20K] stands 2.29; under KEMARKVIEHCSNFKEENMPTSR [D20P], 2.46; under KEMARKVIEHCSNFKEENMATSR [D20A], 1.63. Regarding KEMARKVIEHCSNFKEENMLTSR [D20L], the protein stability index was 1.87. Under KEMARKVIEHCSNFKEENMQTSR [D20Q] stands 2.23. Next, KEMARKVIEHCSNFKEENMNTSR [D20N]: 4.59; KEMARKVIEHCSNFKEENMCTSR [D20C]: 2.08; KEMARKVIEHCSNFKEENMVTSR [D20V]: 1.51.

For the variant KEMARKVIEHCSNFKEENMHTSR [D20H], the protein stability index worked out at 2.96. For the variant KEMARKVIEHCSNFKEENMTTSR [D20T], the protein stability index was found to be 2.99. Under KEMARKVIEHCSNFKEENMDMSR [T21M] stands 4.41. Next, KEMARKVIEHCSNFKEENMDSSR [T21S]: 4.65. As to KEMARKVIEHCSNFKEENMDESR [T21E], the protein stability index turned out to be 4.98. Next, KEMARKVIEHCSNFKEENMDRSR [T21R]: 1.65; KEMARKVIEHCSNFKEENMDFSR [T21F]: 3.84; KEMARKVIEHCSNFKEENMDNSR [T21N]: 4.48.

KEMARKVIEHCSNFKEENMDVSR [T21V]: the protein stability index was determined as 3.1.

With KEMARKVIEHCSNFKEENMDQSR [T21Q], the protein stability index came to 3.84.

On to KEMARKVIEHCSNFKEENMDWSR [T21W], for which the protein stability index is 2.3. Next, KEMARKVIEHCSNFKEENMDLSR [T21L]: 3.26. Next, KEMARKVIEHCSNFKEENMDISR [T21I]: 3.16. As to KEMARKVIEHCSNFKEENMDPSR [T21P], the protein stability index was found to be 4.17. Next, KEMARKVIEHCSNFKEENMDASR [T21A]: 4.09. Next, KEMARKVIEHCSNFKEENMDDSR [T21D]: 5.16. Take KEMARKVIEHCSNFKEENMDHSR [T21H]: the protein stability index worked out at 2.18. Next, KEMARKVIEHCSNFKEENMDGSR [T21G]: 5.12.

Regarding KEMARKVIEHCSNFKEENMDKSR [T21K], the protein stability index came to 1.68. Consider KEMARKVIEHCSNFKEENMDCSR [T21C], for which the protein stability index stood at 3.39. As for KEMARKVIEHCSNFKEENMDYSR [T21Y], the protein stability index is 2.13. Next, KEMARKVIEHCSNFKETNMDTSR [E17T]: 3.45. Under KEMARKVIEHCSNFKEVNMDTSR [E17V] stands 2.74; under KEMARKVIEHCSNFKEWNMDTSR [E17W], 2.2; under KEMARKVIEHCSNFKERNMDTSR [E17R], 2.21. Next, KEMARKVIEHCSNFKEYNMDTSR [E17Y]: 2.41; KEMARKVIEHCSNFKENNMDTSR [E17N]: 3.55; KEMARKVIEHCSNFKEPNMDTSR [E17P]: 2.93. Regarding KEMARKVIEHCSNFKESNMDTSR [E17S], the protein stability index was 3.29. Take KEMARKVIEHCSNFKEQNMDTSR [E17Q]: the protein stability index was found to be 3.19. Next, KEMARKVIEHCSNFKEMNMDTSR [E17M]: 3.51; KEMARKVIEHCSNFKEENMDTIR [S22I]: 3.72. Regarding KEMARKVIEHCSNFKEENMDTKR [S22K], the protein stability index came out at 2.86. Under KEMARKVIEHCSNFKEENMDTHR [S22H] stands 3.09. As for KEMARKVIEHCSNFKEENMDTER [S22E], the protein stability index is 3.74. Under KEMARKVIEHCSNFKEENMDTMR [S22M] stands 3.43; under KEMARKVIEHCSNFKEENMDTGR [S22G], 3.48; under KEMARKVIEHCSNFKEENMDTCR [S22C], 2.4. Under KEMARKVIEHCSNFKEENMDTFR [S22F] stands 3.72.

KEMARKVIEHCSNFKEENMDTLR [S22L]: the protein stability index was 3.58. Next, KEMARKVIEHCSNFKEENMDTAR [S22A]: 2.64; KEMARKVIEHCSNFKEENMDTDR [S22D]: 4.07. Under KEMARKVIEHCSNFKEEHMDTSR [N18H] stands 3.47. In the case of KEMARKVIEHCSNFKEESMDTSR [N18S], the protein stability index was found to be 3.7. On to KEMARKVIEHCSNFKEERMDTSR [N18R], for which the protein stability index turned out to be 2. As to KEMARKVIEHCSNFKEEKMDTSR [N18K], the protein stability index was found to be 2.99.

As for KEMARKVIEHCSNFKEEAMDTSR [N18A], the protein stability index was found to be 3.34. Take KEMARKVIEHCSNFKEEQMDTSR [N18Q]: the protein stability index came to 3.6. With KEMARKVIEHCSNFKEELMDTSR [N18L], the protein stability index was found to be 2.91. Next, KEMARKVIEHCSNFKEEFMDTSR [N18F]: 3.07. Take KEMARKVIEHCSNFKEEYMDTSR [N18Y]: the protein stability index amounted to 3.08. Next, KEMARKVIEHCSNFKEECMDTSR [N18C]: 3.3; KEMARKVIEHCSNFKEEVMDTSR [N18V]: 3.46. Under KEMARKVIEHCSNFKEEIMDTSR [N18I] stands 3.31; under KEMARKVIEHCSNFKEEPMDTSR [N18P], 3.9. Under KEMARKVIEHCSNFKEEGMDTSR [N18G] stands 4.02; under KEMARKVIEHCSNFKEEMMDTSR [N18M], 3.54; under KEMARKVIEHCSNFKEEDMDTSR [N18D], 3.52. For the variant KEMARKVIEHCSNFKEEEMDTSR [N18E], the protein stability index was 4.22.

Take KEMARKVIEHCSNFKEEWMDTSR [N18W]: the protein stability index is 3.6.

As to KEMARKVIEHCSNFKEETMDTSR [N18T], the protein stability index turned out to be 3.45.

Consider KEMARKVIEHCSNFKEENKDTSR [M19K], for which the protein stability index came to 2.81. Consider KEMARKVIEHCSNFKEENGDTSR [M19G], for which the protein stability index was determined as 3.37. Next, KEMARKVIEHCSNFKEENYDTSR [M19Y]: 3.71; KEMARKVIEHCSNFKEENQDTSR [M19Q]: 3.87.

For KEMARKVIEHCSNFKEENDDTSR [M19D], the protein stability index is 4.46. Under KEMARKVIEHCSNFKEENSDTSR [M19S] stands 3.63; under KEMARKVIEHCSNFKEENPDTSR [M19P], 3.58. Under KEMARKVIEHCSNFKEENTDTSR [M19T] stands 3.92; under KEMARKVIEHCSNFKEENIDTSR [M19I], 4.32. Under KEMARKVIEHCSNFKEENADTSR [M19A] stands 3.68; under KEMARKVIEHCSNFKEENWDTSR [M19W], 3.64; under KEMARKVIEHCSNFKEENRDTSR [M19R], 3.62.

Consider KEMARKVIEHCSNFKEENHDTSR [M19H], for which the protein stability index stood at 3.77. Under KEMARKVIEHCSNFKEENEDTSR [M19E] stands 4.15. Turning to KEMARKVIEHCSNFKEENVDTSR [M19V], the protein stability index was 3.77.

KEMARKVIEHCSNFKEENLDTSR [M19L]: the protein stability index is 3.47. With KEMARKVIEHCSNFKEENFDTSR [M19F], the protein stability index is 3.94. On to KEMARKVIEHCSNFKEENNDTSR [M19N], for which the protein stability index was determined as 4.29. For KEMARKVIEHCSNFKEENCDTSR [M19C], the protein stability index came to 3.51.
